The text below walks through data of patent US20250019451A1 (published 2025).

Assay [1] addresses T1, human CCR8 (UniProt P51685 1-355). Description: FACS cell binding.
The target in assay [2] is T1, human CCR8. Briefly: CCL1 blocking.
Assay [3] addresses T1, human CCR8. Description: FACS cell binding. This is another data set of the same source.
Assay [4] addresses T2, mouse CCR8 (UniProt P56484 1-353).
T2 chain: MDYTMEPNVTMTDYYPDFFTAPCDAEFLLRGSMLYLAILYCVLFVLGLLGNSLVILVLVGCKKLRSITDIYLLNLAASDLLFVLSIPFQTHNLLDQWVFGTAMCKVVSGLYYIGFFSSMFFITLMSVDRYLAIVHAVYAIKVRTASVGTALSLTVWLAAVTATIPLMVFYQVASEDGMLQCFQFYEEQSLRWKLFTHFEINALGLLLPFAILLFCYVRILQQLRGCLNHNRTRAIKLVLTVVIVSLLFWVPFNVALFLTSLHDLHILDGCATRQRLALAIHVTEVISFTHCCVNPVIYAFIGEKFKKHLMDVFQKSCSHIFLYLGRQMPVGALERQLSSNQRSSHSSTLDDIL
Briefly: FACS cell binding.

Assay [5] concerns the target T1, human CCR8. Briefly: CCL1 blocking. This is another data set of the same source.

Positions count from the first letter of the chain named. Read-outs that look alike come from different tables or passages of the source.

B1: HFB11-21 (antibody, V domains shown)
VH: QVQLQQPGAELVKPGASVKLSCKASGYTFISYWMHWVKQRPGRGLEWIGRIDPNSGKTKYNEKFKTKATLTVDKSSSTAYMHLNSLTSDDSAVYYCAREGWGDYWGQGTTLTVSS
VL: DIVLTQSPASLAVSLGQRATISCRASESVDNYGISFMHWYQQKPGQPPRLLIYRASNLASGIPARFSGSGSSTDFTLTINPVETDDIATYYCQQSNKDPRTFGGGTKLEIK
In the case of B1, in assay [1], a half-maximal response (EC50) required 9.05 nM.

B2: HFB11-19 (antibody, V domains shown)
VH: QVQLQQSGAELVKPGASVKLSCKASGYTFTDYIIHWVKQRSGQGLEWIGWFSPRNNYVKYNERFTDKATLTADKSSNTVYMELSSLTSEDSAVYFCSRHGRNSIGFAYWGQGTLVTVSA
VL: DIVMTQAAPSVPVTPGESVSISCRSSKSLLNSNGNTYLYWFLQRPGQSPQLLIYRMSNLASGVPDRFSGSGSGTAFTLRISRVEAEDVGVYYCMQHLEYPYTFGGGTKLEIK
In the case of B2, in assay [1], the EC50 was 0.86 nM.

B3: HFB11-8 (antibody, V domains shown)
VH: EVQLVETGGGLVQPKGSLKLSCAASGFRFNTNAMNWVRQAPGKGLEWVARIRSKSNNYATHYVDSVKDRFTVSRDDSQSMLYLQMNNLKAEDTAMYYCVRGSDNNYYYAMDYWGQGTSVTVSS
VL: B2 VL with N31H, A75S, A85V, Y101F, G105S
Take B3: in assay [1], a half-maximal effect (EC50) was put at 0.53 nM. This molecule had an IC50 in assay [2] of 0.452 nM.

B4: HFB11-10 parental antibody (non-humanized) in ADCC enhanced format (antibody, V domains shown)
VH: B3 VH with G44D, H61Y, V63A, V72I, L88V, A90T
VL: B2 VL with N31H, Y101F, G105S
In assay [3], B4 displayed an EC50 of 0.37 nM.

B5: HFB11-2 (antibody, V domains shown)
VH: EVQLVESGGGLVQPKGSLKLSCAASGFSFNTYAMNWVRQAPGKGLEWVARIRSKSNNYATYYADSVKDRFTISRDDSERMLYLQMNNLKTEDTAMYYCVRGGSYYSNHYFDYWGQGTTLTVSS
VL: B2 VL with N31H, R55Q, Y101F, G105A, I111L
Consider B5, for which the figures for the EC50 in assay [1] and in assay [4] were 0.98 nM and 0.4 nM, respectively. In addition, the 50% inhibitory concentration (IC50) in assay [2] amounted to 1.33 nM.

B6: HFB11-3 (antibody, V domains shown)
VH: EVQLVESGGGLVQPQGSLKLSCAASGFSFNTYAMNWVRQAPGKGLQWVARIRSKSNNYATYYADSVKDRFTISRDDSESMLYLQMNNLKTEDAAMYYCVRGKDANYFYAMDYWGQGTSVTVSS
VL: B2 VL with N31H, Y101F, G105A, I111L
For the molecule B6, the midpoint of the response in assay [1], the EC50, lay at 1.63 nM. The molecule also yielded an IC50 in assay [2] of 1.3 nM.

B7: HFB11-5 (antibody, V domains shown)
VH: EVQLVESGGGLVQPRGSLKLSCTASGFSFNAYAMNWVRQAPGKGLEWVARIRTKSNNYATYYADSVKDRFTISRDDSESMLYLQMKNLKTEDTAMYYCVRGGYGNGGYYFDYWGQGTTLTVSS
VL: B2 VL with P12T, V19A, N31H, S32R, T36S, M56I, Y101F, G105S
In turn, B7 returned an EC50 in assay [1] of 0.49 nM. Moreover, half-maximal inhibition in assay [2] (IC50) was put at 0.413 nM.

B8: HFB11-10 (antibody, V domains shown)
VH: B3 VH with G44D, H61Y, V63A, V72I, L88V, A90T
VL: B2 VL with N31H, Y101F, G105S
With B8, the IC50 in assay [5] and in assay [2] was 0.428 nM each time. For the same molecule, the EC50 in assay [1] is 0.57 nM.

Broadly, the EC50 is the concentration giving half of the maximal effect. Low values mean an effect from little substance, high ones a need for much substance. One may read the IC50 as the concentration that inhibits the measured activity by half. Read a high IC50 as lower potency.
